Data as given in patent US10329548B2, “Fungal cellobiohydrolases” (Alliance for Sustainable Energy, LLC, priority 2017, dated 2019).

Key:
Type in all cases: biochemical, Trichoderma reesei
[1] = substrate: [H][C@@]1(O[C@H]2[C@H](O)[C@@H](O)[C@H](Oc3ccc([N+](=O)[O-])cc3)O[C@@H]2CO)O[C@H](CO)[C@H](O)[C@H](O)[C@H]1O; assay: pNP-Lactopyranoside (pNP-L) assay, kinetics, TrCel7A 1-1d; details: other: TrCel7A 1-1d, 45° C., 30 minutes, pNP-L 8 mM-0.133 mM
Source text: (§1) The wild-type (wt) TrCel7A sequence was aligned with all the high-pNP-L activity sequences in order to identify the corresponding positions of mutations in TrCel7A. Without being bound by theory, these mutations should result in improving pNP-L activity of TrCel7A. PCR-based point mutagenesis or gene synthesis was used to generate the corresponding 9 TrCel7A mutants.
(§2) Cel7A was purified as described in Linger et al., Biotechnol Biofuels 8:45 (2015). Briefly, fermentation broths (˜8 to 10 L) were harvested, vacuum filtered, concentrated, and then loaded onto a 26/10 Phenyl Sepharose Fast Flow column. Buffer A was 20 mM Bis-Tris pH 6.5 and buffer B was 20 mM Bis-Tris pH 6.5, 2.0 M (NH4)2SO4. After binding and washing, a descending gradient of 80% B (1.6 M (NH4)2SO4) to 0% B over eight column volumes was used to elute the bound proteins from the column. Active fractions were identified by a p-nitrophenyl-β-(1-4)-D-lactopyranoside (pNP-L) activity assay. The pNP-L-active fractions were pooled and concentrated as needed. Protein was desalted and exchanged into 20 mM Bis-Tris buffer pH 6.5. […]
(§3) The pNP-L assay was performed by incubating 150 μL of 2 mM pNP-L with 25 μL of sample at 45° C. for 30 minutes. Reactions were quenched with 25 μL of 1 M Na2CO3, and the absorbance at 405 nm was measured. […]

[2] = substrate: [H][C@@]1(O[C@H]2[C@H](O)[C@@H](O)[C@H](Oc3ccc([N+](=O)[O-])cc3)O[C@@H]2CO)O[C@H](CO)[C@H](O)[C@H](O)[C@H]1O; assay: pNP-Lactopyranoside (pNP-L) assay, kinetics, TrCel7A 6-53a; details: other: TrCel7A 6-53a, 45° C., 30 minutes, pNP-L 8 mM-0.133 mM
Source text: as §1, §2, §3

[3] = substrate: [H][C@@]1(O[C@H]2[C@H](O)[C@@H](O)[C@H](Oc3ccc([N+](=O)[O-])cc3)O[C@@H]2CO)O[C@H](CO)[C@H](O)[C@H](O)[C@H]1O; assay: pNP-Lactopyranoside (pNP-L) assay, kinetics, TrCel7A 2-18c; details: other: TrCel7A 2-18c, 45° C., 30 minutes, pNP-L 8 mM-0.133 mM
Source text: as §1, §2, §3

[4] = substrate: [H][C@@]1(O[C@H]2[C@H](O)[C@@H](O)[C@H](Oc3ccc([N+](=O)[O-])cc3)O[C@@H]2CO)O[C@H](CO)[C@H](O)[C@H](O)[C@H]1O; assay: pNP-Lactopyranoside (pNP-L) assay, kinetics, TrCel7A WT; details: other: TrCel7A WT, 45° C., 30 minutes, pNP-L 8 mM-0.133 mM
Procedure: as §2, with “6.5. This sample was then loaded onto a Tricorn 10/100 anion exchange column packed with Source 15Q and eluted with a 0-50% salt gradient over 30 column volumes. Buffers were 20 mM Bis-Tris pH 6.5 (A) and the same supplemented with 1.0 M NaCl (B). pNP-L activity was followed again to identify the active fractions.” for “6.5.”
as §3

[5] = substrate: [H][C@@]1(O[C@H]2[C@H](O)[C@@H](O)[C@H](Oc3ccc([N+](=O)[O-])cc3)O[C@@H]2CO)O[C@H](CO)[C@H](O)[C@H](O)[C@H]1O; assay: pNP-Lactopyranoside (pNP-L) assay, kinetics, TrCel7A 6-87a; details: other: TrCel7A 6-87a, 45° C., 30 minutes, pNP-L 8 mM-0.133 mM
Source text: as §1, §2, §3

[6] = substrate: [H][C@@]1(O[C@H]2[C@H](O)[C@@H](O)[C@H](Oc3ccc([N+](=O)[O-])cc3)O[C@@H]2CO)O[C@H](CO)[C@H](O)[C@H](O)[C@H]1O; assay: pNP-Lactopyranoside (pNP-L) assay, kinetics, TrCel7A 1-11; details: other: TrCel7A 1-11, 45° C., 30 minutes, pNP-L 8 mM-0.133 mM
Source text: as §1, §2, §3

[7] = substrate: [H][C@@]1(O[C@H]2[C@H](O)[C@@H](O)[C@H](Oc3ccc([N+](=O)[O-])cc3)O[C@@H]2CO)O[C@H](CO)[C@H](O)[C@H](O)[C@H]1O; assay: pNP-Lactopyranoside (pNP-L) assay, kinetics, TrCel7A 11-35a; details: other: TrCel7A 11-35a, 45° C., 30 minutes, pNP-L 8 mM-0.133 mM
Source text: as §1, §2, §3

B1: Trichoderma reesei Cel7A (TrCel7A, SEQ ID NO: 37) variant 1-1d, A241V (with secretion signal) / A224V (without secretion signal) (Trichoderma reesei RUT C-30; … (protein)
chain: QSACTLQSETHPPLTWQKCSSGGTCTQQTGSVVIDANWRWTHATNSSTNCYDGNTWSSTLCPDNETCAKNCCLDGAAYASTYGVTTSGNSLSIGFVTQSAQKNVGARLYLMASDTTYQEFTLLGNEFSFDVDVSQLPCGLNGALYFVSMDADGGVSKYPTNTAGAKYGTGYCDSQCPRDLKFINGQANVEGWEPSSNNANTGIGGHGSCCSEMDIWEANSISEVLTPHPCTTVGQEICEGDGCGGTYSDNRYGGTCDPDGCDWNPYRLGNTSFYGPGSSFTLDTTKKLTVVTQFETSGAINRYYVQNGVTFQQPNAELGSYSGNELNDDYCTAEEAEFGGSSFSDKGGLTQFKKATSGGMVLVMSLWDDYYANMLWLDSTYPTNETSSTPGAVRGSCSTSSGVPAQVESQSPNAKVTFSNIKFGPIGSTGNPSGGNPPGGNPPGTTTTRRPATTTGSSPGPTQSHYGQCGGIGYSGPTVCASGTTCQVLNPYYSQCL
Question: For B1, which kcat [1] is on record?
Answer: Its kcat is 0.933 ± 0.0667 s⁻¹.

B2: Trichoderma reesei Cel7A (TrCel7A, SEQ ID NO: 37) variant 6-53a, I110M/Y283N/T462I (with secretion signal) / I93M/Y266N/T445I (without secretion signal) … (protein)
chain: QSACTLQSETHPPLTWQKCSSGGTCTQQTGSVVIDANWRWTHATNSSTNCYDGNTWSSTLCPDNETCAKNCCLDGAAYASTYGVTTSGNSLSMGFVTQSAQKNVGARLYLMASDTTYQEFTLLGNEFSFDVDVSQLPCGLNGALYFVSMDADGGVSKYPTNTAGAKYGTGYCDSQCPRDLKFINGQANVEGWEPSSNNANTGIGGHGSCCSEMDIWEANSISEALTPHPCTTVGQEICEGDGCGGTYSDNRYGGTCDPDGCDWNPNRLGNTSFYGPGSSFTLDTTKKLTVVTQFETSGAINRYYVQNGVTFQQPNAELGSYSGNELNDDYCTAEEAEFGGSSFSDKGGLTQFKKATSGGMVLVMSLWDDYYANMLWLDSTYPTNETSSTPGAVRGSCSTSSGVPAQVESQSPNAKVTFSNIKFGPIGSTGNPSGGNPPGGNPPGITTTRRPATTTGSSPGPTQSHYGQCGGIGYSGPTVCASGTTCQVLNPYYSQCL
Question: Which kcat [2] does the source give for B2 here?
Answer: The kcat was 0.35 ± 0.05 s⁻¹.

B3: Trichoderma reesei Cel7A (TrCel7A, SEQ ID NO: 37) variant 2-18c, T406S/A389V (with secretion signal) / T389S/A372V (without secretion signal) (Trichoderma … (protein)
chain: QSACTLQSETHPPLTWQKCSSGGTCTQQTGSVVIDANWRWTHATNSSTNCYDGNTWSSTLCPDNETCAKNCCLDGAAYASTYGVTTSGNSLSIGFVTQSAQKNVGARLYLMASDTTYQEFTLLGNEFSFDVDVSQLPCGLNGALYFVSMDADGGVSKYPTNTAGAKYGTGYCDSQCPRDLKFINGQANVEGWEPSSNNANTGIGGHGSCCSEMDIWEANSISEALTPHPCTTVGQEICEGDGCGGTYSDNRYGGTCDPDGCDWNPYRLGNTSFYGPGSSFTLDTTKKLTVVTQFETSGAINRYYVQNGVTFQQPNAELGSYSGNELNDDYCTAEEAEFGGSSFSDKGGLTQFKKATSGGMVLVMSLWDDYYVNMLWLDSTYPTNETSSSPGAVRGSCSTSSGVPAQVESQSPNAKVTFSNIKFGPIGSTGNPSGGNPPGGNPPGTTTTRRPATTTGSSPGPTQSHYGQCGGIGYSGPTVCASGTTCQVLNPYYSQCL
Question: Which results are given for B3?
Answer: Km [3]: 1980 ± 180 µM; kcat [3]: 0.467 ± 0.117 s⁻¹

B4: Trichoderma reesei Cel7A (TrCel7A) wild-type, SEQ ID NO: 37 (Trichoderma reesei RUT C-30) (protein)
chain: QSACTLQSETHPPLTWQKCSSGGTCTQQTGSVVIDANWRWTHATNSSTNCYDGNTWSSTLCPDNETCAKNCCLDGAAYASTYGVTTSGNSLSIGFVTQSAQKNVGARLYLMASDTTYQEFTLLGNEFSFDVDVSQLPCGLNGALYFVSMDADGGVSKYPTNTAGAKYGTGYCDSQCPRDLKFINGQANVEGWEPSSNNANTGIGGHGSCCSEMDIWEANSISEALTPHPCTTVGQEICEGDGCGGTYSDNRYGGTCDPDGCDWNPYRLGNTSFYGPGSSFTLDTTKKLTVVTQFETSGAINRYYVQNGVTFQQPNAELGSYSGNELNDDYCTAEEAEFGGSSFSDKGGLTQFKKATSGGMVLVMSLWDDYYANMLWLDSTYPTNETSSTPGAVRGSCSTSSGVPAQVESQSPNAKVTFSNIKFGPIGSTGNPSGGNPPGGNPPGTTTTRRPATTTGSSPGPTQSHYGQCGGIGYSGPTVCASGTTCQVLNPYYSQCL
Question: Which kcat [4] does the source give for B4 here?
Answer: The kcat was 0.333 ± 0.0167 s⁻¹.

B5: Trichoderma reesei Cel7A (TrCel7A, SEQ ID NO: 37) variant 6-87a, D274V (with secretion signal) / D257V (without secretion signal) (Trichoderma reesei RUT C-30; … (protein)
chain: QSACTLQSETHPPLTWQKCSSGGTCTQQTGSVVIDANWRWTHATNSSTNCYDGNTWSSTLCPDNETCAKNCCLDGAAYASTYGVTTSGNSLSIGFVTQSAQKNVGARLYLMASDTTYQEFTLLGNEFSFDVDVSQLPCGLNGALYFVSMDADGGVSKYPTNTAGAKYGTGYCDSQCPRDLKFINGQANVEGWEPSSNNANTGIGGHGSCCSEMDIWEANSISEALTPHPCTTVGQEICEGDGCGGTYSDNRYGGTCVPDGCDWNPYRLGNTSFYGPGSSFTLDTTKKLTVVTQFETSGAINRYYVQNGVTFQQPNAELGSYSGNELNDDYCTAEEAEFGGSSFSDKGGLTQFKKATSGGMVLVMSLWDDYYANMLWLDSTYPTNETSSTPGAVRGSCSTSSGVPAQVESQSPNAKVTFSNIKFGPIGSTGNPSGGNPPGGNPPGTTTTRRPATTTGSSPGPTQSHYGQCGGIGYSGPTVCASGTTCQVLNPYYSQCL
Question: How did the kcat [5] turn out when B5 was run?
Answer: The kcat was 0.4 ± 0.0667 s⁻¹.

B6: Trichoderma reesei Cel7A (TrCel7A, SEQ ID NO: 37) variant 1-11, L366M (with secretion signal) / L349M (without secretion signal) (Trichoderma reesei RUT C-30; … (protein)
chain: QSACTLQSETHPPLTWQKCSSGGTCTQQTGSVVIDANWRWTHATNSSTNCYDGNTWSSTLCPDNETCAKNCCLDGAAYASTYGVTTSGNSLSIGFVTQSAQKNVGARLYLMASDTTYQEFTLLGNEFSFDVDVSQLPCGLNGALYFVSMDADGGVSKYPTNTAGAKYGTGYCDSQCPRDLKFINGQANVEGWEPSSNNANTGIGGHGSCCSEMDIWEANSISEALTPHPCTTVGQEICEGDGCGGTYSDNRYGGTCDPDGCDWNPYRLGNTSFYGPGSSFTLDTTKKLTVVTQFETSGAINRYYVQNGVTFQQPNAELGSYSGNELNDDYCTAEEAEFGGSSFSDKGGMTQFKKATSGGMVLVMSLWDDYYANMLWLDSTYPTNETSSTPGAVRGSCSTSSGVPAQVESQSPNAKVTFSNIKFGPIGSTGNPSGGNPPGGNPPGTTTTRRPATTTGSSPGPTQSHYGQCGGIGYSGPTVCASGTTCQVLNPYYSQCL
Question: B6 was tested. Which kcat [6] did it give?
Answer: Its kcat is 0.182 ± 0.00333 s⁻¹.

B7: Trichoderma reesei Cel7A (TrCel7A, SEQ ID NO: 37) variant 11-35a, G461D (with secretion signal) / G444D (without secretion signal) (Trichoderma reesei RUT … (protein)
chain: QSACTLQSETHPPLTWQKCSSGGTCTQQTGSVVIDANWRWTHATNSSTNCYDGNTWSSTLCPDNETCAKNCCLDGAAYASTYGVTTSGNSLSIGFVTQSAQKNVGARLYLMASDTTYQEFTLLGNEFSFDVDVSQLPCGLNGALYFVSMDADGGVSKYPTNTAGAKYGTGYCDSQCPRDLKFINGQANVEGWEPSSNNANTGIGGHGSCCSEMDIWEANSISEALTPHPCTTVGQEICEGDGCGGTYSDNRYGGTCDPDGCDWNPYRLGNTSFYGPGSSFTLDTTKKLTVVTQFETSGAINRYYVQNGVTFQQPNAELGSYSGNELNDDYCTAEEAEFGGSSFSDKGGLTQFKKATSGGMVLVMSLWDDYYANMLWLDSTYPTNETSSTPGAVRGSCSTSSGVPAQVESQSPNAKVTFSNIKFGPIGSTGNPSGGNPPGGNPPDTTTTRRPATTTGSSPGPTQSHYGQCGGIGYSGPTVCASGTTCQVLNPYYSQCL
Question: For B7, which kcat [7] is on record?
Answer: Its kcat is 0.183 s⁻¹.
